US20250145729A1 (DENALI THERAPEUTICS, published 2025)

T1: human CD98hc (human, UniProt P08195 109-529)
T1 construct: also called huCD98hc; CD98 heavy chain
T1 sequence: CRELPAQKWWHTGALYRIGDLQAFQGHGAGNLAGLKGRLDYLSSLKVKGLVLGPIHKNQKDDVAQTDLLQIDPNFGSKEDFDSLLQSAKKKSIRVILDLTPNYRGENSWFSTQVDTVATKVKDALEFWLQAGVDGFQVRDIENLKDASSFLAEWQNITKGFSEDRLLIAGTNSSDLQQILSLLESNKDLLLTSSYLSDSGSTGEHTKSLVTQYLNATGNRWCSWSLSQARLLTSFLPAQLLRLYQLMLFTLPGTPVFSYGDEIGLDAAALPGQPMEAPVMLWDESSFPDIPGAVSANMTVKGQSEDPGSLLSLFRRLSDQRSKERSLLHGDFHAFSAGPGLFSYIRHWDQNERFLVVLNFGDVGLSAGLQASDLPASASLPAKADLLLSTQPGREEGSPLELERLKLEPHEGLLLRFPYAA


Assays:
cyno CD98hc = biological target: T2, cyno CD98hc (cynomolgus monkey); test: SPR (Biacore)
T2 construct: also called cynomolgus CD98hc; cyCD98hc
Method in brief: (§1)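 Engineered Fc polypeptides, made as Fc-Fab fusions with anti-BACE1 Fabs, were assessed for Kd toward CD98hc. Measurements were taken by surface plasmon resonance with a Biacore instrument, in a bivalent format or in a monovalent knob/hole format whose CD98hc-binding site sat on the knob chain alone.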

human CD98hc = biological target: T1, human CD98hc; test: SPR (Biacore)
Method in brief: as §1

Row | Kd (cyno CD98hc) [nM] | Kd (human CD98hc) [nM] | Binder
1 | 1100 | 260 | LLB2-10-13 (Fc fusion, Fc part only) APELLGGPSVFLFPPKPKDTLMISRTPEVTCVVVDVSHEDPEVKFNWYVDGVEVHNAKTKPREEQYNSTYRVVSVLTVLHQDWLNGKEYKCKVSNKALPAPIEKTISKAKGQPREPQVYTLPPSRDELTKNQVSLTCLVKGFYPSDIAVLWNSQFLLENNYKTTPPVLDSDGSFFLYSKLTVDKSRWQQGEIFACNVYHEALHNHYTFKNLQLSPGK
2 | 9200 | 2000 | LLB2-17 (Fc fusion, Fc part only) APELLGGPSVFLFPPKPKDTLMISRTPEVTCVVVDVSHEDPEVKFNWYVDGVEVHNAKTKPREEQYNSTYRVVSVLTVLHQDWLNGKEYKCKVSNKALPAPIEKTISKAKGQPREPQVYTLPPSRDELTKNQVSLTCLVKGFYPSDISVLWNSRFALEDNTKTTPPVLDSDGSFFLYSKLTVDKSRWQQGEIFACNVLHEALHNHYTFKNLALSPGK
3 | 1800 | 500 | LLB2.10.8.10.1.N (Fc fusion, Fc part only; changes read against LLB2-10-8) APELLGGPSVFLFPPKPKDTLMISRTPEVTCVVVDVSHEDPEVKFNWYVDGVEVHNAKTKPREEQYNSTYRVVSVLTVLHQDWLNGKEYKCKVSNKALPAPIEKTISKAKGQPREPQVYTLPPSRDELTKNQVSLTCLVKGFYPSDIAVLWNSRFVLENNYKTTPPVLDSDGSFFLYSKLTVDKSRWQQGNIFACNVYHEALHNHYTFKNLKLSPGK
4 | 2200 | 650 | LLB2.10.8.10.8.N (Fc fusion, Fc part only; changes read against LLB2-10-8) APELLGGPSVFLFPPKPKDTLMISRTPEVTCVVVDVSHEDPEVKFNWYVDGVEVHNAKTKPREEQYNSTYRVVSVLTVLHQDWLNGKEYKCKVSNKALPAPIEKTISKAKGQPREPQVYTLPPSRDELTKNQVSLTCLVKGFYPSDIAVLWNSRFVLENNYKTTPPVLDSDGSFFLYSKLTVDKSRWQQGNIFACNVYHEALHNHYTFKNLHLSPGK
5 | 3800 | 850 | LLB2-13 (Fc fusion, Fc part only) APELLGGPSVFLFPPKPKDTLMISRTPEVTCVVVDVSHEDPEVKFNWYVDGVEVHNAKTKPREEQYNSTYRVVSVLTVLHQDWLNGKEYKCKVSNKALPAPIEKTISKAKGQPREPQVYTLPPSRDELTKNQVSLTCLVKGFYPSDIAVLWNSQFLLENNYKTTPPVLDSDGSFFLYSKLTVDKSRWQQGNIFACNVLHEALHNHYTFKNLSLSPGK
6 | 2000 | 450 | LLB2-30 (Fc fusion, Fc part only) APELLGGPSVFLFPPKPKDTLMISRTPEVTCVVVDVSHEDPEVKFNWYVDGVEVHNAKTKPREEQYNSTYRVVSVLTVLHQDWLNGKEYKCKVSNKALPAPIEKTISKAKGQPREPQVYTLPPSRDELTKNQVSLTCLVKGFYPSDIAVLWNSQFLLENNYKTTPPVLDSDGSFFLYSKLTVDKSRWQQGNIFACNVYHEALHNHYTFKNLQLSPGK
7 | 4500 | 1200 | LLB2.10.8.9.11.N (Fc fusion, Fc part only) APELLGGPSVFLFPPKPKDTLMISRTPEVTCVVVDVSHEDPEVKFNWYVDGVEVHNAKTKPREEQYNSTYRVVSVLTVLHQDWLNGKEYKCKVSNKALPAPIEKTISKAKGQPREPQVYTLPPSRDELTKNQVSLTCLVKGFYPSDIAVLWNSRFVLENNYKTTPPVLDSDGSFFLYSKLTVDKSRWQQGNTFACNVYHEALHNHYTFKNLALSPGK
8 | 2300 | 420 | LLB2-21 (Fc fusion, Fc part only) APELLGGPSVFLFPPKPKDTLMISRTPEVTCVVVDVSHEDPEVKFNWYVDGVEVHNAKTKPREEQYNSTYRVVSVLTVLHQDWLNGKEYKCKVSNKALPAPIEKTISKAKGQPREPQVYTLPPSRDELTKNQVSLTCLVKGFYPSDIDVLWNSRFLLETNTKTTPPVLDSDGSFFLYSKLTVDKSRWQQGEIFACNVLHEALHNHYTFKNLKLSPGK
9 | 2000 | 490 | LLB2.10.8.10.3.N (Fc fusion, Fc part only; changes read against LLB2-10-8) APELLGGPSVFLFPPKPKDTLMISRTPEVTCVVVDVSHEDPEVKFNWYVDGVEVHNAKTKPREEQYNSTYRVVSVLTVLHQDWLNGKEYKCKVSNKALPAPIEKTISKAKGQPREPQVYTLPPSRDELTKNQVSLTCLVKGFYPSDIAVLWNSRFVLENNYKTTPPVLDSDGSFFLYSKLTVDKSRWQQGNIFACNVYHEALHNHYTFKNLRLSPGK
10 | 700 | 140 | LLB2.10.8.4.12.N (Fc fusion, Fc part only; changes read against LLB2-10-8) APELLGGPSVFLFPPKPKDTLMISRTPEVTCVVVDVSHEDPEVKFNWYVDGVEVHNAKTKPREEQYNSTYRVVSVLTVLHQDWLNGKEYKCKVSNKALPAPIEKTISKAKGQPREPQVYTLPPSRDELTKNQVSLTCLVKGFYPSDIAVLWNSRFVLENNYKTTPPVLDSDGSFFLYSKLTVDKSRWQQGNIFACNVYHEALHNHWTFKNLRLSPGK
11 | 5500 | 1200 | LLB2-20 (Fc fusion, Fc part only) APELLGGPSVFLFPPKPKDTLMISRTPEVTCVVVDVSHEDPEVKFNWYVDGVEVHNAKTKPREEQYNSTYRVVSVLTVLHQDWLNGKEYKCKVSNKALPAPIEKTISKAKGQPREPQVYTLPPSRDELTKNQVSLTCLVKGFYPSDIVVLWNSRFVLEDNVKTTPPVLDSDGSFFLYSKLTVDKSRWQQGAIFACNVLHEALHNHHTFKNLVLSPGK
12 | 2600 | 500 | LLB2-23 (Fc fusion, Fc part only) APELLGGPSVFLFPPKPKDTLMISRTPEVTCVVVDVSHEDPEVKFNWYVDGVEVHNAKTKPREEQYNSTYRVVSVLTVLHQDWLNGKEYKCKVSNKALPAPIEKTISKAKGQPREPQVYTLPPSRDELTKNQVSLTCLVKGFYPSDIVVLWNSRFVLEQNVKTTPPVLDSDGSFFLYSKLTVDKSRWQQGEIFACNVLHEALHNHYTFKNLVLSPGK
13 | 8200 | 1300 | LLB2-11 (Fc fusion, Fc part only) APELLGGPSVFLFPPKPKDTLMISRTPEVTCVVVDVSHEDPEVKFNWYVDGVEVHNAKTKPREEQYNSTYRVVSVLTVLHQDWLNGKEYKCKVSNKALPAPIEKTISKAKGQPREPQVYTLPPSRDELTKNQVSLTCLVKGFYPSDIAVLWNSRFSLENNYKTTPPVLDSDGSFFLYSKLTVDKSRWQQGNIFACNVMHEALHNHYTFKNLSLSPGK
14 | 2100 | 640 | LLB2-31 (Fc fusion, Fc part only) APELLGGPSVFLFPPKPKDTLMISRTPEVTCVVVDVSHEDPEVKFNWYVDGVEVHNAKTKPREEQYNSTYRVVSVLTVLHQDWLNGKEYKCKVSNKALPAPIEKTISKAKGQPREPQVYTLPPSRDELTKNQVSLTCLVKGFYPSDIAVLWNSQFVLENNYKTTPPVLDSDGSFFLYSKLTVDKSRWQQGNIFACNVYHEALHNHYTFKNLALSPGK
15 | 2800 | 610 | LLB2-37 (Fc fusion, Fc part only) APELLGGPSVFLFPPKPKDTLMISRTPEVTCVVVDVSHEDPEVKFNWYVDGVEVHNAKTKPREEQYNSTYRVVSVLTVLHQDWLNGKEYKCKVSNKALPAPIEKTISKAKGQPREPQVYTLPPSRDELTKNQVSLTCLVKGFYPSDIAVLWNSQFHLENNYKTTPPVLDSDGSFFLYSKLTVDKSRWQQGNIFACNVYHEALHNHYTFKNLLLSPGK
16 | 5000 | 990 | LLB2-12 (Fc fusion, Fc part only) APELLGGPSVFLFPPKPKDTLMISRTPEVTCVVVDVSHEDPEVKFNWYVDGVEVHNAKTKPREEQYNSTYRVVSVLTVLHQDWLNGKEYKCKVSNKALPAPIEKTISKAKGQPREPQVYTLPPSRDELTKNQVSLTCLVKGFYPSDIAVLWNSRFSLENNYKTTPPVLDSDGSFFLYSKLTVDKSRWQQGNIFACNVLHEALHSHYTFKNLSLSPGK
17 | 4700 | 1500 | LLB2.10.8.12.5.N (Fc fusion, Fc part only; changes read against LLB2-10-8) APELLGGPSVFLFPPKPKDTLMISRTPEVTCVVVDVSHEDPEVKFNWYVDGVEVHNAKTKPREEQYNSTYRVVSVLTVLHQDWLNGKEYKCKVSNKALPAPIEKTISKAKGQPREPQVYTLPPSRDELTKNQVSLTCLVKGFYPSDIAVLWNSHYELENNYKTTPPVLDSDGSFFLYSKLTVDKSRWQQGNIFACNVYHEALHNHYTFKNLALSPGK
18 | 1900 | 270 | LLB2.10.8.14.3.N (Fc fusion, Fc part only; changes read against LLB2-10-8) APELLGGPSVFLFPPKPKDTLMISRTPEVTCVVVDVSHEDPEVKFNWYVDGVEVHNAKTKPREEQYNSTYRVVSVLTVLHQDWLNGKEYKCKVSNKALPAPIEKTISKAKGQPREPQVYTLPPSRDELTKNQVSLTCLVKGFYPSDIAVLWNSRFVLENNYKTTPPVLDSDGSFFLYSKLTVDKSRWQQGNIFACNVYHEALHNHRTFKNLRLSPGK
19 | 9100 | 1800 | LLB2-18 (Fc fusion, Fc part only) APELLGGPSVFLFPPKPKDTLMISRTPEVTCVVVDVSHEDPEVKFNWYVDGVEVHNAKTKPREEQYNSTYRVVSVLTVLHQDWLNGKEYKCKVSNKALPAPIEKTISKAKGQPREPQVYTLPPSRDELTKNQVSLTCLVKGFYPSDIVVLWNSRFALEQNVKTTPPVLDSDGSFFLYSKLTVDKSRWQQGQIFACNVLHEALHNHLTFKNLVLSPGK
20 | 6200 | 1100 | LLB2-24 (Fc fusion, Fc part only) APELLGGPSVFLFPPKPKDTLMISRTPEVTCVVVDVSHEDPEVKFNWYVDGVEVHNAKTKPREEQYNSTYRVVSVLTVLHQDWLNGKEYKCKVSNKALPAPIEKTISKAKGQPREPQVYTLPPSRDELTKNQVSLTCLVKGFYPSDIEVLWNTRFVLETNAKTTPPVLDSDGSFFLYSKLTVDKSRWQQGEIFACNVLHEALHNHFTFKNLALSPGK
